Results: patent US20250163164A1 (LANOVA MEDICINES DEVELOPMENT, published 2025)
Residue numbers refer to the chain shown, from its start.

B1: 61H8C1 H2L2 hIgG1 (antibody, V domains shown)
VH: QVQLVQSGAEVAKPGASVKVSCKASGYTFTSYWTQWIRQAPGQGLEGMGAIYPGDDDTSYNQKFKGRVTMTADTSTSTVYMELSSLRSEDTAVYYCARGATLLRPFPYWGQGTLVTVSS
VL: DIQMTQSPSSLSTSVGDRVTITCKASQDVSTAVAWYQQKPGKSPKLLIYSASYRYTGVPSRFSGSGSGTDFTLTISSLQPEDFATYSCQQHYSIPPTFGQGTKLEIK
notes: humanized, hIgG1
B2: 61H8C1 H4L4 hIgG1 (antibody, V domains shown)
VH: B1 VH with V20L, R38K, M48I, R67K, V68A, M70L, T74K, V79A, E82Q
VL: B1 VL with Q3V, S60D, S63T, L73F, L78V, Q100G
notes: humanized, hIgG1
B3: 61H8C1 H3L1 hIgG1 (antibody, V domains shown)
VH: B1 VH with M48I, V68A, M70L, T74K, E82Q
VL: B1 VL with T13A, S43A, S87Y
notes: humanized, hIgG1
B4: 61H8C1 H1L4 hIgG1 (antibody, V domains shown)
VH: B1 VH with A12K, I37V, G47W, A72R
VL: B1 VL with Q3V, S60D, S63T, L73F, L78V, Q100G
notes: humanized, hIgG1
B5: 61H8C1 H2L4 hIgG1 (antibody, V domains shown)
VH: B1 VH
VL: B1 VL with Q3V, S60D, S63T, L73F, L78V, Q100G
notes: humanized, hIgG1
B6: 61H8C1 H1L2 hIgG1 (antibody, V domains shown)
VH: B1 VH with A12K, I37V, G47W, A72R
VL: B1 VL
notes: humanized, hIgG1
B7: 61H8C1 H1L3 hIgG1 (antibody, V domains shown)
VH: B1 VH with A12K, I37V, G47W, A72R
VL: B1 VL with S60D, L73F, Q100G
notes: humanized, hIgG1
B8: 61H8C1 H2L1 hIgG1 (antibody, V domains shown)
VH: B1 VH
VL: B1 VL with T13A, S43A, S87Y
notes: humanized, hIgG1
B9: 61H8C1 H4L1 hIgG1 (antibody, V domains shown)
VH: B1 VH with V20L, R38K, M48I, R67K, V68A, M70L, T74K, V79A, E82Q
VL: B1 VL with T13A, S43A, S87Y
notes: humanized, hIgG1
B10: 61H8C1 H2L3 hIgG1 (antibody, V domains shown)
VH: B1 VH
VL: B1 VL with S60D, L73F, Q100G
notes: humanized, hIgG1
B11: 61H8C1 H3L2 hIgG1 (antibody, V domains shown)
VH: B1 VH with M48I, V68A, M70L, T74K, E82Q
VL: B1 VL
notes: humanized, hIgG1
B12: 61H8C1 H4L3 hIgG1 (antibody, V domains shown)
VH: B1 VH with V20L, R38K, M48I, R67K, V68A, M70L, T74K, V79A, E82Q
VL: B1 VL with S60D, L73F, Q100G
notes: humanized, hIgG1
B13: 61H8C1 H3L3 hIgG1 (antibody, V domains shown)
VH: B1 VH with M48I, V68A, M70L, T74K, E82Q
VL: B1 VL with S60D, L73F, Q100G
notes: humanized, hIgG1
B14: 61H8C1 H3L4 hIgG1 (antibody, V domains shown)
VH: B1 VH with M48I, V68A, M70L, T74K, E82Q
VL: B1 VL with Q3V, S60D, S63T, L73F, L78V, Q100G
notes: humanized, hIgG1
B15: 61H8C1 H1L1 hIgG1 (antibody, V domains shown)
VH: B1 VH with A12K, I37V, G47W, A72R
VL: B1 VL with T13A, S43A, S87Y
notes: humanized, hIgG1
B16: 61H8C1 H4L2 hIgG1 (antibody, V domains shown)
VH: B1 VH with V20L, R38K, M48I, R67K, V68A, M70L, T74K, V79A, E82Q
VL: B1 VL
notes: humanized, hIgG1
B17: 57F8H3F1 H2L2 hIgG1 (antibody, V domains shown)
VH: QVQLVQSGAEVVKPGASVKVSCKASGYTFTNYWMNWVRQAPGQGLEWIGRIDAYETETHYNQKFRDRVTMTVDTSTSTVYMELSSLRSEDTAVYYCARGYGHYYGVDYWGQGTLVTVSS
VL: DIQMTQSPSSLSASVGDRVTITCRASENVGNFGISFVNWFQQKPGKAPKLLIYAASNLGSGDPSRFSGSGSGTDFTLTISSLQPEDFATYFCQQSKGVPWTFGQGTKVEIK
notes: humanized, hIgG1
B18: 57F8H3F1 H4L4 hIgG1 (antibody, V domains shown)
VH: B17 VH with V20L, R38K, A40R, V68A, T69I, M70L, T74K, V79A, S84R
VL: B17 VL with Q3V, M4L, V19A, A47P, S64A, Q104G, V108L
notes: humanized, hIgG1
B19: 72B4H4 H2L2 hIgG1 (antibody, V domains shown)
VH: B17 VH with E55A, T56G, R65K, H102D, Y103A, V106M, Y108H
VL: B17 VL with N28S, G30D, F32Y, V37M, N57R, L58Q, G97E
notes: humanized, hIgG1
B20: 57F8H3F1 H3L4 hIgG1 (antibody, V domains shown)
VH: B17 VH with V20L, R38K, V68A, M70L, T74K
VL: B17 VL with Q3V, M4L, V19A, A47P, S64A, Q104G, V108L
notes: humanized, hIgG1
B21: 57F8H3F1 H3L2 hIgG1 (antibody, V domains shown)
VH: B17 VH with V20L, R38K, V68A, M70L, T74K
VL: B17 VL
notes: humanized, hIgG1
B22: 57F8H3F1 H4L2 hIgG1 (antibody, V domains shown)
VH: B17 VH with V20L, R38K, A40R, V68A, T69I, M70L, T74K, V79A, S84R
VL: B17 VL
notes: humanized, hIgG1
B23: 57F8H3F1 H4L3 hIgG1 (antibody, V domains shown)
VH: B17 VH with V20L, R38K, A40R, V68A, T69I, M70L, T74K, V79A, S84R
VL: B17 VL with M4L, S64A, Q104G
notes: humanized, hIgG1
B24: 57F8H3F1 H2L3 hIgG1 (antibody, V domains shown)
VH: B17 VH
VL: B17 VL with M4L, S64A, Q104G
notes: humanized, hIgG1
B25: 72B4H4 H1L3 hIgG1 (antibody, V domains shown)
VH: B17 VH with V12K, I48M, E55A, T56G, R65K, V72R, H102D, Y103A, V106M, Y108H
VL: B17 VL with M4L, N28S, G30D, F32Y, V37M, N57R, L58Q, S64A, G97E, Q104G
notes: humanized, hIgG1
B26: 57F8H3F1 H2L1 hIgG1 (antibody, V domains shown)
VH: B17 VH
VL: B17 VL with F40Y, D62V, F91Y
notes: humanized, hIgG1
B27: 72B4H4 H1L2 hIgG1 (antibody, V domains shown)
VH: B17 VH with V12K, I48M, E55A, T56G, R65K, V72R, H102D, Y103A, V106M, Y108H
VL: B17 VL with N28S, G30D, F32Y, V37M, N57R, L58Q, G97E
notes: humanized, hIgG1
B28: 57F8H3F1 H1L3 hIgG1 (antibody, V domains shown)
VH: B17 VH with V12K, I48M, V72R
VL: B17 VL with M4L, S64A, Q104G
notes: humanized, hIgG1
B29: 57F8H3F1 H3L3 hIgG1 (antibody, V domains shown)
VH: B17 VH with V20L, R38K, V68A, M70L, T74K
VL: B17 VL with M4L, S64A, Q104G
notes: humanized, hIgG1
B30: 57F8H3F1 H1L1 hIgG1 (antibody, V domains shown)
VH: B17 VH with V12K, I48M, V72R
VL: B17 VL with F40Y, D62V, F91Y
notes: humanized, hIgG1
B31: 57F8H3F1 H1L2 hIgG1 (antibody, V domains shown)
VH: B17 VH with V12K, I48M, V72R
VL: B17 VL
notes: humanized, hIgG1
B32: 57F8H3F1 H4L1 hIgG1 (antibody, V domains shown)
VH: B17 VH with V20L, R38K, A40R, V68A, T69I, M70L, T74K, V79A, S84R
VL: B17 VL with F40Y, D62V, F91Y
notes: humanized, hIgG1
B33: 72B4H4 H1L4 hIgG1 (antibody, V domains shown)
VH: B17 VH with V12K, I48M, E55A, T56G, R65K, V72R, H102D, Y103A, V106M, Y108H
VL: DIVLTQSPSSLSASVGDRATITCRASESVDNYGISFMNWFQQKPGKPPKLLIYAASRQGSGDPARFSGSGSGTDFTLTISSLQPEDFATYFCQQSKEVPWTFGGGTKLEIK
notes: humanized, hIgG1
B34: 72B4H4 H1L1 hIgG1 (antibody, V domains shown)
VH: B17 VH with V12K, I48M, E55A, T56G, R65K, V72R, H102D, Y103A, V106M, Y108H
VL: B17 VL with N28S, G30D, F32Y, V37M, F40Y, N57R, L58Q, D62V, F91Y, G97E
notes: humanized, hIgG1
B35: 57F8H3F1 H3L1 hIgG1 (antibody, V domains shown)
VH: B17 VH with V20L, R38K, V68A, M70L, T74K
VL: B17 VL with F40Y, D62V, F91Y
notes: humanized, hIgG1
B36: 57F8H3F1 H2L4 hIgG1 (antibody, V domains shown)
VH: B17 VH
VL: B17 VL with Q3V, M4L, V19A, A47P, S64A, Q104G, V108L
notes: humanized, hIgG1
B37: 57F8H3F1 H1L4 hIgG1 (antibody, V domains shown)
VH: B17 VH with V12K, I48M, V72R
VL: B17 VL with Q3V, M4L, V19A, A47P, S64A, Q104G, V108L
notes: humanized, hIgG1

The binders below were run against T1, human interleukin 13 receptor subunit alpha 2 (IL-13RA2) (human, UniProt Q14627 27-380) (assay: FACS on A375 cells).
T1 construct: whole, on cells; also called IL-13Rα2; CD213A2
T1 sequence (looked up): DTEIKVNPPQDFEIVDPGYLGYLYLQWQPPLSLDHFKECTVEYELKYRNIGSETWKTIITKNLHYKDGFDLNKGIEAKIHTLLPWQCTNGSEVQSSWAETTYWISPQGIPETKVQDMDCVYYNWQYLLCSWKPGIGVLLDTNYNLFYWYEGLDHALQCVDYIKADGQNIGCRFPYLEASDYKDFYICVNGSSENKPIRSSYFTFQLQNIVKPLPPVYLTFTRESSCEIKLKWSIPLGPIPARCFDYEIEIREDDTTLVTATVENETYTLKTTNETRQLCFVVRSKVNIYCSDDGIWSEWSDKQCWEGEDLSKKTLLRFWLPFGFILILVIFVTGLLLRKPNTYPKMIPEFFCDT
Description: A375 cells that endogenously expressed IL-13RA2, were harvested from flasks. 100 μl of 1×10⁶ cells/ml of cells were incubated with primary humanized antibodies in 4-fold serial dilutions starting from 200 nM to 0.003 nM for 30 minutes on ice. After being washed with 200 μl of FACS buffer twice, cells were incubated with secondary antibody for 30 minutes on ice. Cells were washed with 200 μl of FACS buffer twice and analyzed by FACS.

Binder | EC50 | Top (MFI)
B1 | 150 pM | 22400 MFI
B2 | 190 pM | 21600 MFI
B3 | 150 pM | 20600 MFI
B4 | 170 pM | 19800 MFI
B5 | 180 pM | 21900 MFI
B6 | 150 pM | 19600 MFI
B7 | 200 pM | 20000 MFI
B8 | 160 pM | 22400 MFI
B9 | 170 pM | 22200 MFI
B10 | 190 pM | 22100 MFI
B11 | 170 pM | 22300 MFI
B12 | 180 pM | 20800 MFI
B13 | 150 pM | 20100 MFI
B14 | 200 pM | 22000 MFI
B15 | 140 pM | 20300 MFI
B16 | 140 pM | 21100 MFI
B17 | 890 pM | 7090 MFI
B18 | 910 pM | 7270 MFI
B19 | 1480 pM | 8700 MFI

Binder | EC50 | Top (MFI)
B20 | 1300 pM | 7610 MFI
B21 | 1250 pM | 7420 MFI
B22 | 750 pM | 7340 MFI
B23 | 800 pM | 7180 MFI
B24 | 920 pM | 7010 MFI
B25 | 1000 pM | 8900 MFI
B26 | 380 pM | 6910 MFI
B27 | 810 pM | 8540 MFI
B28 | 810 pM | 7540 MFI
B29 | 1620 pM | 7610 MFI
B30 | 630 pM | 7020 MFI
B31 | 780 pM | 7510 MFI
B32 | 420 pM | 7350 MFI
B33 | 980 pM | 9040 MFI
B34 | 540 pM | 8440 MFI
B35 | 710 pM | 8160 MFI
B36 | 1010 pM | 7140 MFI
B37 | 940 pM | 7820 MFI
